The target in assay [1] is T1, B-domain deleted factor VIII (FVIII) (human, UniProt P00451 20-759; P00451 1668-2351).
T1 sequence 1: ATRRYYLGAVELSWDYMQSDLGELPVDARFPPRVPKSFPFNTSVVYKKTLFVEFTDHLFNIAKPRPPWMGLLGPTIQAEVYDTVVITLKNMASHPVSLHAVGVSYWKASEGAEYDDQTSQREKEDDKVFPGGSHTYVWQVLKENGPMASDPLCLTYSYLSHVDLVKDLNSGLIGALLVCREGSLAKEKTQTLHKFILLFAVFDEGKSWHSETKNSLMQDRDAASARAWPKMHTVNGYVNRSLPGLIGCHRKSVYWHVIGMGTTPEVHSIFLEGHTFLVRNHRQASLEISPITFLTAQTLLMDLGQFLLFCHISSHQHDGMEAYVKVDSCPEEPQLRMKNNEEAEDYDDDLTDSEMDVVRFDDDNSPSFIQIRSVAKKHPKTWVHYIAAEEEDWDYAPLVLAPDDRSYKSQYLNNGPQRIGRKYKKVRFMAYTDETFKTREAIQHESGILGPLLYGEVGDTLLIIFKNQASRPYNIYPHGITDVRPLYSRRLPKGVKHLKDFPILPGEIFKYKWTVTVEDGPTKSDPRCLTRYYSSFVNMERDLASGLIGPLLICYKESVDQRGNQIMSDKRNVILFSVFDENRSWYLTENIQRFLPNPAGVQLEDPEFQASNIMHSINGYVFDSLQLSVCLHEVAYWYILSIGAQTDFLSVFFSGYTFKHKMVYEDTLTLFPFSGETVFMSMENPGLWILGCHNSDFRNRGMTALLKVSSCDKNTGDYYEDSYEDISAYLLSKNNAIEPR
T1 sequence 2: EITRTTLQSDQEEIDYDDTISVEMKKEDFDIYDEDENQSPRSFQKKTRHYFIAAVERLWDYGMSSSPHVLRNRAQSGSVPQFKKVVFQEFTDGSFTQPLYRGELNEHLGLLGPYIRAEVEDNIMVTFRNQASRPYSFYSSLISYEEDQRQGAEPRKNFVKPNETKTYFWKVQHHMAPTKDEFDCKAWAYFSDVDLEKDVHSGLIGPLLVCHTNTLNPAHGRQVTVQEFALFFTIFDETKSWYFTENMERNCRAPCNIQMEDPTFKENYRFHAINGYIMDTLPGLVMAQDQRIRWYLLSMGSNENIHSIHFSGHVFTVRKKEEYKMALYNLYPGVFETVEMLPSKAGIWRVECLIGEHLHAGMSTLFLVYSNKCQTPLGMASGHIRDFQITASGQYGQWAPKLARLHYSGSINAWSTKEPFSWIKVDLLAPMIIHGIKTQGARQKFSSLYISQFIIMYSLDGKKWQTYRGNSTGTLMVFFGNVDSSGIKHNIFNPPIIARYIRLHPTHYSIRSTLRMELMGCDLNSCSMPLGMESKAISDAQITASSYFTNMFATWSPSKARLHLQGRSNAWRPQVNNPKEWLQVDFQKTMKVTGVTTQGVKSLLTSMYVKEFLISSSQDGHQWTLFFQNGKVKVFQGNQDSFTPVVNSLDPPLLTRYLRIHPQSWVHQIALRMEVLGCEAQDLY
As to the kind of experiment: cell-based or functional assay.

The target of assay [2] is T1, B-domain deleted factor VIII (FVIII). As to the kind of experiment: SPR (Biacore 3000), antibody captured by rabbit anti-mouse IgG, FVIII as analyte; Kd = koff/kon. As for the experimental part: (§1) The kinetics of FVIII binding to antibody was determined by surface plasmon resonance using a Biacore 3000 instrument. Each antibody was captured to a level of 70-110 RU in flow cell 2 of a CM5 chip coated with rabbit anti-mouse IgG antibody (GE Healthcare, Uppsala, Sweden) as described by the manufacturer. Kinetic analysis was performed at 25° C. at a flow rate of 30 μl/min in running buffer using flow cell 1 as reference. Serial two-fold dilutions of FVIII from 0 to 40 nM were analyzed. Following 3-min equilibration of the flow cells in running buffer, 150 μl FVIII were injected. The dissociation phase lasted 9 min and regeneration was performed with a 3-min pulse of 10 mM glycine, pH 1.7. The obtained reference-subtracted sensorgrams fitted well to a 1:1 Langmuir binding model which allowed for estimation of association (Kₒₙ) and dissociation (koff) rate constants and the equilibrium dissociation constant (Kd=koff/kₒₙ) using BIAevaluation 4.1 software (GE Healthcare, Uppsala, Sweden).
TABLE 2 Surface plasmon resonance analysis of the kinetics of FVIII binding to select antibodies. The listed antibodies were captured by immobilized rabbit anti-mouse IgG antibody and binding to FVIII were tested in concentrations ranging from 0 to 40 nM. […] The dissociation constrant Kd was calculated as koff/kₒₙ. […]

For assay [3] the target is unchanged. The assay is described as follows: SPR (Biacore 3000), antibody captured by rabbit anti-mouse IgG, FVIII 0-40 nM as analyte, 25 C, 1:1 Langmuir fit. On the procedure: as §1
TABLE 2 Surface plasmon resonance analysis of the kinetics of FVIII binding to select antibodies. The listed antibodies were captured by immobilized rabbit anti-mouse IgG antibody and binding to FVIII were tested in concentrations ranging from 0 to 40 nM. Binding curves fitted well to a 1:1 Langmuir binding isotherm which provided estimates of association (kₒₙ) and dissociation (koff) rate constants. The dissociation constrant Kd was calculated as koff/kₒₙ. Standard errors obtained from the fits are shown.

B1: anti-FVIII 4F143 (antibody, mouse IgG1, V domains shown)
VH: QIQFVQSGPELKKPGETVKISCKASGYTFTNYGMNWVKQAPGKGLKWMGWINSYTGEPTYADDFKGRFAFSLETSASTAYLQINNLKNEDTATYFCARGASYAMDYWGQGTSVTVSS
VL: DVQITQSPSYLAASPGETITINCRASKSISKYLAWYQEKPVKTNKLLIYSGSTLQSGIPSRFSGSGSGTDFTLTISSLEPEDFAMYYCQQHYEYPLTFGAGTKLELKR
notes: Mouse monoclonal from hybridoma, murine IgG1 heavy chain and kappa light chain; also called Anti-FVIIIa 4F143
On to B1, for which, in assay [1], the “Maximal level of thrombin generation, fold-increase compared to FVIII” value was 1.7 fold and the “Rate of thrombin generation, fold-increase compared to FVIII” value came to 1.8 fold. The molecule also showed a Kd in assay [2] of 3.5 nM. Moreover, in assay [3], the koff came out at 0.000849 s⁻¹ and the kon is 244000 M⁻¹ s⁻¹.

B2: anti-FVIII 4F50 (antibody, mouse IgG1, V domains shown)
VH: QIQFVQSGPELKKPGETVKISCKASGYTFTNYGMNWVKQAPGKGLKWMGWINSYTGEPTYADDFKGRFDFSLETSASTAYLQINNLKNEDTATYFCARGASYAMDHWGQGTSVTVSS
VL: DVQITQSPSYLAASPGETISINCRASKSISKYLAWYQEKPVKTNKLLIYSGSTLQSGIPSRFSGSGSGTDFTLTISSLEPEDFAMYYCQQHYEYPLTFGAGTKLELKR
notes: Mouse monoclonal, murine IgG1 heavy chain and kappa light chain; also called Anti-FVIIIa 4F50
In assay [2], B2 returned a Kd of 5.6 nM. Further, in assay [3], the koff stood at 0.00106 s⁻¹ and the kon turned out to be 190000 M⁻¹ s⁻¹.

The values above are taken from US20130266576A1 (Novo Nordisk, published 2013).
